According to patent publication US20140031293A1:

Target: purified human fibrinogen (human) (UniProt P02671)
Experiment: cell-based or functional assay

UniProt P02671, sequence (P02671 20-629 limits assumed, chain 1 of 3): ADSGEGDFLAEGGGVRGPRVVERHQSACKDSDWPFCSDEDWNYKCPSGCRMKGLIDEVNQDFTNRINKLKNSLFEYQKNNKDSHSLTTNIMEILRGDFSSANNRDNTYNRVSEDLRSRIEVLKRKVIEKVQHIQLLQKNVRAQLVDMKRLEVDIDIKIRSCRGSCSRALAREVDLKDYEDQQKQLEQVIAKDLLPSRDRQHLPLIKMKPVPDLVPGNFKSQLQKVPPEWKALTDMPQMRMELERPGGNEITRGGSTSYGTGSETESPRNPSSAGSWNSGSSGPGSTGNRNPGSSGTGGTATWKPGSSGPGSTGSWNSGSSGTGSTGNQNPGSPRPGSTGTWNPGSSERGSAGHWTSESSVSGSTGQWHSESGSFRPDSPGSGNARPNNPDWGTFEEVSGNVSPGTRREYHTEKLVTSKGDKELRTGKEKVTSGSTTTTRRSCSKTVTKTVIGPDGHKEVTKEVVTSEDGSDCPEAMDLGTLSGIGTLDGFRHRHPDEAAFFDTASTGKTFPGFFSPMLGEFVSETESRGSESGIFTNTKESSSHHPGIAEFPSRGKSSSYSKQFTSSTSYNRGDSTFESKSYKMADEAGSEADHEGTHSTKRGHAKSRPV
UniProt P02671, sequence (P02675 31-491 limits assumed, chain 2 of 3, further chain): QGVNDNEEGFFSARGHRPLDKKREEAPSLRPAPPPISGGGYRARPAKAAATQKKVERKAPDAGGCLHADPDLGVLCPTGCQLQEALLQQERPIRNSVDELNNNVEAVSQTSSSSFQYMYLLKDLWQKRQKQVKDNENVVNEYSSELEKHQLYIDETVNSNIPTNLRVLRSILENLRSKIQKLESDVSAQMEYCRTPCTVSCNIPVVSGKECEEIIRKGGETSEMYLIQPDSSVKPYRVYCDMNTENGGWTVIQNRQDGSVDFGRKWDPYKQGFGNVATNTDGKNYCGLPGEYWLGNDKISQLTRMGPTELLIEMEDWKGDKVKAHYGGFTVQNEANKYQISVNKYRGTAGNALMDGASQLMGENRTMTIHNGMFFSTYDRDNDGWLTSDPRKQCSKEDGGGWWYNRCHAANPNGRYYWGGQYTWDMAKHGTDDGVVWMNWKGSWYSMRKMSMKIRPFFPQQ
UniProt P02671, sequence (P02679 other isoform, or with tags, fused parts or gaps limits assumed, chain 3 of 3, further chain): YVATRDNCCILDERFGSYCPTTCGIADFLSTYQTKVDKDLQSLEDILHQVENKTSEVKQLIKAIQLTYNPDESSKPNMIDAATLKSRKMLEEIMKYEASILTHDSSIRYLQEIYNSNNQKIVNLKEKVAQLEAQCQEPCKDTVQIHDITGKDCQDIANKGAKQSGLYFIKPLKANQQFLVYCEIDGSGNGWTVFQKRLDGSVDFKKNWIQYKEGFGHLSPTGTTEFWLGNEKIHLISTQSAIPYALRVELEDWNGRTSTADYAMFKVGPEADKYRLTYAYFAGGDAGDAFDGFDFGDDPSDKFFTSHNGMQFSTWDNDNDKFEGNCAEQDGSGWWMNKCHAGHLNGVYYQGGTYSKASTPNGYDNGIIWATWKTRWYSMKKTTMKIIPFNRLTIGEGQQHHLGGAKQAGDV

PeproStat: fibrinogen-binding peptides of sequence GPRPG (GPRPG-PEG12-maleimide) conjugated to human serum albumin thiolated with 2-iminothiolane (from UniProt P02768 25-609)
Clotting activity (clot formation, Sigma Amelung KC4 coagulometer; 30 uL sample at 0.5 mg/ml added to 100 uL fibrinogen at 3 mg/ml): < 6 s
